Data from patent CN116693676A.

Assays:
[1] = target: 肺炎支原体天然抗原(购自Microbix) (Mycoplasma pneumoniae); test: indirect ELISA, antigen coated at 2 ug/ml, antibody 15 ng/ml
[2] = target: 肺炎支原体天然抗原(购自Microbix) (Mycoplasma pneumoniae); test: indirect ELISA, antigen coated at 2 ug/ml, antibody 7.5 ng/ml
[3] = target: 肺炎支原体天然抗原(购自Microbix) (Mycoplasma pneumoniae); test: indirect ELISA, antigen coated at 2 ug/ml, antibody 0.94 ng/ml
[4] = target: 肺炎支原体天然抗原(购自Microbix) (Mycoplasma pneumoniae); test: indirect ELISA, antigen coated at 2 ug/ml, antibody 1.88 ng/ml
[5] = target: 肺炎支原体天然抗原(购自Microbix) (Mycoplasma pneumoniae); test: indirect ELISA, antigen coated at 2 ug/ml, antibody 3.75 ng/ml
[6] = target: 肺炎支原体天然抗原(购自Microbix) (Mycoplasma pneumoniae); test: indirect ELISA, antigen coated at 2 ug/ml, antibody 0 ng/ml (blank)

Molecule | OD450 (参考630nm) [1] | OD450 (参考630nm) [2] | OD450 (参考630nm) [3] | OD450 (参考630nm) [4] | OD450 (参考630nm) [5] | OD450 (参考630nm) [6]
对照 (antibody) | 1.32 OD | 0.629 OD | 0.118 OD | 0.212 OD | 0.403 OD | 0.015 OD
Anti-MP-22A9mut3 (antibody, mouse IgG1, kappa, V domains shown) VH: QAYLQQSGAELVRSGASVKMSCKASGYTFTTYNMHWVKQTPGQGLEWIGYVHPGYGITYYSQKFKGKATITADTSSSTAYMLLSSLTSEDSAVYFCTRSYYGYSYWFFDVWGAGTTVTVSS VL: NIVMTQSPKSVSMSVGERVTLNCKASENVGSYVAWYQQKPDRSPKLLIHGASNRYTGVPDRFTGSGSTTDFTLTISSVQAEDLADYHCGQTYNYPYTFGGGTKLEIKR | 2.16 OD | 1.67 OD | 0.359 OD | 0.512 OD | 0.906 OD | 0.016 OD
Anti-MP-22A9mut5 (antibody, mouse IgG1, kappa, V domains shown) VH: QAYLQQSGAELVRSGASVKMSCKASGYTFTTYNMHWVKQTPGQGLEWIGYVHPGYGITYYSQKFKGKATLTADTSSSTAYMLLSSITSEDSAVYFCTRSYYGYSYWFFDVWGAGTTVTVSS VL: NIVMTQSPKSVSMSVGERVTLNCKASENVGSYVAWYQQKPDRSPKLLIHGASNRYTGVPDRFTGSGSTTDFTITISSVQAEDLADYHCGQTYNYPYTFGGGTKLEIKR | 2.03 OD | 1.68 OD | 0.315 OD | 0.536 OD | 0.814 OD | 0.011 OD

The next lines start with the values.

OD450 (参考630nm) [1] | OD450 (参考630nm) [2] | OD450 (参考630nm) [3] | OD450 (参考630nm) [4] | OD450 (参考630nm) [5] | OD450 (参考630nm) [6] | Molecule
1.92 OD | 1.39 OD | 0.205 OD | 0.391 OD | 0.619 OD | 0.013 OD | Anti-MP-22A9mut1 (antibody, mouse IgG1, kappa, V domains shown) VH: QAYLQQSGAELVRSGASVKMSCKASGYTFTTYNMHWVKQTPGQGLEWIGYVHPGYGITYYSQKFKGKATLTADTSSSTAYMILSSLTSEDSAVYFCTRSYYGYSYWFFDVWGAGTTVTVSS VL: NIVMTQSPKSVSMSVGERVTLNCKASENVGSYVAWYQQKPDRSPKLLIHGASNRYTGVPDRFTGSGSTTDFTLTISSVQAEDLADYHCGQTYNYPYTFGGGTKLEIKR
2.01 OD | 1.42 OD | 0.207 OD | 0.339 OD | 0.627 OD | 0.011 OD | Anti-MP-22A9mut6 (antibody, mouse IgG1, kappa, V domains shown) VH: QAYLQQSGAELVRSGASVKMSCKASGYTFTTYNMHWVKQTPGQGLEWIGYVHPGYGITYYSQKFKGKATLTADTSSSTAYMLLSSITSEDSAVYFCTRSYYGYSYWFFDVWGAGTTVTVSS VL: NIVMTQSPKSVSMSVGERVTLNCKASENVGSYVAWYQQKPDRSPKLLIHGASNRYTGVPDRFTGSGSTTDFTLTLSSVQAEDLADYHCGQTYNYPYTFGGGTKLEIKR
1.98 OD | 1.47 OD | 0.207 OD | 0.401 OD | 0.758 OD | 0.012 OD | Anti-MP-22A9mut4 (antibody, mouse IgG1, kappa, V domains shown) VH: QAYLQQSGAELVRSGASVKMSCKASGYTFTTYNMHWVKQTPGQGLEWIGYVHPGYGITYYSQKFKGKATLTADTSSSTAYMLLSSITSEDSAVYFCTRSYYGYSYWFFDVWGAGTTVTVSS VL: NIVMTQSPKSVSMSVGERVTLNCKASENVGSYVAWYQQKPDRSPKLLIHGASNRYTGVPDRFTGSGSTTDFTLTISSVQAEDLADYHCGQTYNYPYTFGGGTKLEIKR
2.23 OD | 1.6 OD | 0.386 OD | 0.534 OD | 0.899 OD | 0.021 OD | Anti-MP-22A9mut2 (antibody, mouse IgG1, kappa, V domains shown) VH: QAYLQQSGAELVRSGASVKMSCKASGYTFTTYNMHWVKQTPGQGLEWIGYVHPGYGITYYSQKFKGKATLTADTSSSTAYMLLSSLTSEDSAVYFCTRSYYGYSYWFFDVWGAGTTVTVSS VL: NIVMTQSPKSVSMSVGERVTLNCKASENVGSYVAWYQQKPDRSPKLLIHGASNRYTGVPDRFTGSGSTTDFTLTISSVQAEDLADYHCGQTYNYPYTFGGGTKLEIKR
